We go through two substances from doi:10.1101/431791.

This assay has as its target AUR1-mRFP (A. thaliana) (UniProt Q9M077). The assay is described as follows: FRET or BRET. A general note: In BRET a luciferase serves as donor, and the signal depends on an acceptor being close.
UniProt Q9M077, sequence (Q9M077 whole entry): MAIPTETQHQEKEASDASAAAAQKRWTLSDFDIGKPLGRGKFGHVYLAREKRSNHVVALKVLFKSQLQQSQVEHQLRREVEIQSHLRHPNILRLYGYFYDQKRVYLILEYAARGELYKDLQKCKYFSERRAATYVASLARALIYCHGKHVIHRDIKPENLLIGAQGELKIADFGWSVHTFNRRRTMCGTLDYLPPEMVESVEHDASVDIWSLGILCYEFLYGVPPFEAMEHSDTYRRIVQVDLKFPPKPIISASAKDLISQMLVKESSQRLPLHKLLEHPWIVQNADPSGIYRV

Substance TPXL3-GFP (natural protein) had a donor (GFP) fluorescence lifetime with AUR1-RFP of 1.9 ns.

In turn, TPXL2-GFP (natural protein) gave a donor (GFP) fluorescence lifetime with AUR1-RFP of 1.9 ns.
